Data as given in US20120213844A1 (ALZA, published 2012).
Positions of bridges follow the written chain, without caps; N, C: chain ends. No end group written: not given here.

B1: P190-DOXIL (peptide)
peptide: DPCTWEVWGRECLQ
modifications: disulfide 3-12 (inferred); not fully specified (N-terminus); also: inserted into doxorubicin-loaded liposomes
B2: phage clone displaying SEQ ID NO: 38 (S19 hit) (peptide)
chain: GGGYDCMIRADGSLICWCGGGSGGSGG
notes: pIX phagemid display, library S19; not shown: M13 phage coat protein pIX (MSVL...)
B3: phage clone P179 (SEQ ID NO: 39) (peptide)
chain: GGGGPCVLIRDYYLLCLEGGGSGGSGG
notes: pIX phagemid display, library S19; also called PP179; not shown: M13 phage coat protein pIX (MSVL...)
B4: phage clone displaying SEQ ID NO: 41 (S19 hit) (peptide)
chain: GGGCDCREAVSASLVCRYGGGSGGSGG
notes: as for B2
B5: phage clone displaying SEQ ID NO: 40 (S19 hit) (peptide)
chain: GGGAFCRLDFNQWLTCLVGGGSGGSGG
notes: as for B2
B6: phage clone P180 (SEQ ID NO: 37) (peptide)
chain: GGGMICYLVDSGNIICYKGGGSGGSGG
notes: pIX phagemid display, library S19; also called PP180; not shown: M13 phage coat protein pIX (MSVL...)
B7: phage clone P174 (SEQ ID NO: 51) (peptide)
chain: GGGSGCLDALWQCVYGGGSGGSGG
notes: pIX phagemid display, library S16; also called PP174; not shown: M13 phage coat protein pIX (MSVL...)
B8: phage clone P177 (SEQ ID NO: 52) (peptide)
chain: GGGDACTMVFLWCSLGGGSGGSGG
notes: pIX phagemid display, library S16; also called PP177; not shown: M13 phage coat protein pIX (MSVL...)
B9: phage clone P178 (SEQ ID NO: 53) (peptide)
chain: GGGRWCYFWWITICELGGGSGGSGG
notes: pIX phagemid display, library S17; also called PP178; not shown: M13 phage coat protein pIX (MSVL...)
B10: phage clone P176 (SEQ ID NO: 48) (peptide)
chain: GGGKTCVSTTFDLWFVCFAGGGSGGSGG
notes: pIX phagemid display, library S20; also called PP176; not shown: M13 phage coat protein pIX (MSVL...)
B11: phage clone displaying SEQ ID NO: 16 (S15 hit) (peptide)
chain: GGGSTITSLPTLQCWPILGGGSGGSGG
notes: pIX phagemid display, library S15; not shown: M13 phage coat protein pIX (MSVL...)
B12: phage clone displaying SEQ ID NO: 15 (S15 hit) (peptide)
chain: GGGNWFSLPTLLCFPLNPGGGSGGSGG
notes: as for B11
B13: phage clone displaying SEQ ID NO: 18 (S15 hit) (peptide)
chain: GGGPIFSSLPVLYCTSQLGGGSGGSGG
notes: as for B11
B14: phage clone displaying SEQ ID NO: 19 (S15 hit) (peptide)
chain: GGGGADTLPDLLCWESSLGGGSGGSGG
notes: as for B11
B15: phage clone displaying SEQ ID NO: 17 (S15 hit) (peptide)
chain: GGGPIDDESLPVLYCVTSGGGSGGSGG
notes: as for B11
B16: phage clone displaying SEQ ID NO: 10 (S15 hit) (peptide)
chain: GGGYRLFVDESIFFCTRLGGGSGGSGG
notes: as for B11
B17: phage clone displaying SEQ ID NO: 21 (S15 hit) (peptide)
chain: GGGLPDLICAVDSGTSGAGGGSGGSGG
notes: as for B11
B18: phage clone displaying SEQ ID NO: 11 (S15 hit) (peptide)
chain: GGGELGLPTLLCWPTDTLGGGSGGSGG
notes: as for B11
B19: phage clone P175 (SEQ ID NO: 13) (peptide)
chain: GGGLPDDSLPELICKVRGGGGSGGSGG
notes: pIX phagemid display, library S15; also called PP175; not shown: M13 phage coat protein pIX (MSVL...)
B20: phage clone displaying SEQ ID NO: 14 (S15 hit) (peptide)
chain: GGGHVSLQSLPELICVVSGGGSGGSGG
notes: as for B11
B21: phage clone displaying SEQ ID NO: 12 (S15 hit) (peptide)
chain: GGGVSGILPILVCHPAATGGGSGGSGG
notes: as for B11
B22: phage clone displaying SEQ ID NO: 20 (S15 hit) (peptide)
chain: GGGTVFTLPELVCVVAGTGGGSGGSGG
notes: as for B11
B23: phage clone displaying SEQ ID NO: 44 (S20 hit) (peptide)
chain: GGGWMCFLEGYGASLMCQCGGGSGGSGG
notes: pIX phagemid display, library S20; not shown: M13 phage coat protein pIX (MSVL...)
B24: phage clone displaying SEQ ID NO: 46 (S20 hit) (peptide)
chain: GGGYICTPSDIDSWYICYLGGGSGGSGG
notes: as for B23
B25: phage clone displaying SEQ ID NO: 45 (S20 hit) (peptide)
chain: GGGDSCCSFLTDGTVVCSLGGGSGGSGG
notes: as for B23
B26: phage clone displaying SEQ ID NO: 47 (S20 hit) (peptide)
chain: GGGSVCVGTAFPGWMVCGPGGGSGGSGG
notes: as for B23
B27: phage clone displaying SEQ ID NO: 43 (S20 hit) (peptide)
chain: GGGPTCDSATRRVLTICADGGGSGGSGG
notes: as for B23
B28: phage clone displaying SEQ ID NO: 49 (S20 hit) (peptide)
chain: GGGLLCATTSFRDWFVCFTGGGSGGSGG
notes: as for B23
B29: phage displaying P190 on pIX (SEQ ID NO: 55) (peptide)
chain: GGGDPCTWEVWGRECLQGGGSGGSGG
notes: pIX phagemid display, library S18; on average one peptide per particle; also called PHPEP190; pIX-190; not shown: M13 phage coat protein pIX (MSVL...)
B30: P190-MMB construct 4316 (Fc fusion)
chain: GGDPCTWEVWGRECLQGGGGSGGGGSGGGGSGGGGSCPPCPAPEAAGGPSVFLFPPKPKDTLMISRTPEVTCVVVDVSQEDPEVQFNWYVDGVEVHNAKTKPREEQFNSTYRVVSVLTVLHQDWLNGKEYKCKVSNKGLPSSIEKTISKAKGQPREPQVYTLPPSQEEMTKNQVSLTCLVKGFYPSDIAVEWESNGQPENNYKTTPPVLDSDGSFFLYSRLTVDKSRWQEGNVFSCSVMHEALHNHYTQKSLSLSLGK
notes: Human IgG4 hinge-CH2-CH3 with two Leu to Ala
B31: phage clone displaying SEQ ID NO: 24 (S18 hit) (peptide)
chain: GGGAKCIAFGNSVYCLNGGGSGGSGG
notes: pIX phagemid display, library S18; not shown: M13 phage coat protein pIX (MSVL...)
B32: phage clone displaying SEQ ID NO: 32 (S18 hit) (peptide)
chain: GGGSDCVLFGSKLFCSAGGGSGGSGG
notes: as for B31
B33: phage clone P173 (SEQ ID NO: 31) (peptide)
chain: GGGTDCVIFGLETYCLRGGGSGGSGG
notes: pIX phagemid display, library S18; also called PP173; not shown: M13 phage coat protein pIX (MSVL...)
B34: phage clone displaying SEQ ID NO: 30 (S18 hit) (peptide)
chain: GGGAYCSFVAGDLVCQVGGGSGGSGG
notes: as for B31
B35: phage clone displaying SEQ ID NO: 27 (S18 hit) (peptide)
chain: GGGDSCIQFANLLYCAIGGGSGGSGG
notes: as for B31
B36: phage clone displaying SEQ ID NO: 28 (S18 hit) (peptide)
chain: GGGTDCIRFGVLWYCLVGGGSGGSGG
notes: as for B31
B37: phage clone displaying SEQ ID NO: 23 (S18 hit) (peptide)
chain: GGGAGCIAFVDVVYCARGGGSGGSGG
notes: as for B31
B38: phage clone displaying SEQ ID NO: 25 (S18 hit) (peptide)
chain: GGGRDCIIFDKTVYCVIGGGSGGSGG
notes: as for B31
B39: phage clone displaying SEQ ID NO: 29 (S18 hit) (peptide)
chain: GGGRACITFGKVVYCEVGGGSGGSGG
notes: as for B31
B40: phage clone displaying SEQ ID NO: 35 (S18 hit) (peptide)
chain: GGGRGCVVFGDNIYCIVGGGSGGSGG
notes: as for B31
B41: phage clone displaying SEQ ID NO: 34 (S18 hit) (peptide)
chain: GGGYDCVSFGAVAYCPQGGGSGGSGG
notes: as for B31
B42: phage clone displaying SEQ ID NO: 33 (S18 hit) (peptide)
chain: GGGTDCVRFGETIYCIVGGGSGGSGG
notes: as for B31
B43: phage clone displaying SEQ ID NO: 26 (S18 hit) (peptide)
chain: GGGKHCILFEKTVYCAKGGGSGGSGG
notes: as for B31

biological target: T1, human EGFR on tumor cells (human, UniProt P00533 25-1210); assay: cell-based or functional assay

For B1, the “IC50 D4, cell killing of MDA-MB-468 cells (1 h treatment, 4 days)” value was 120 µg/mL.

With B1 the “IC50 D6, cell killing of MDA-MB-468 cells (1 h treatment, 6 days)” value was 35 µg/mL.

biological target: T2, sEGFR-MMB (dimeric sEGFR mimetibody) (human); assay: phage ELISA on coated sEGFR-MMB, chemiluminescence (background typically <200 units)
T2 construct: Disulfide-linked homodimer: QIQ, sEGFR, flexible linker, J segment, human IgG1 hinge, CH2, CH3; also called sEGFR-Fc; dimeric EGFR
T2 sequence (chain, as listed by the source limits assumed): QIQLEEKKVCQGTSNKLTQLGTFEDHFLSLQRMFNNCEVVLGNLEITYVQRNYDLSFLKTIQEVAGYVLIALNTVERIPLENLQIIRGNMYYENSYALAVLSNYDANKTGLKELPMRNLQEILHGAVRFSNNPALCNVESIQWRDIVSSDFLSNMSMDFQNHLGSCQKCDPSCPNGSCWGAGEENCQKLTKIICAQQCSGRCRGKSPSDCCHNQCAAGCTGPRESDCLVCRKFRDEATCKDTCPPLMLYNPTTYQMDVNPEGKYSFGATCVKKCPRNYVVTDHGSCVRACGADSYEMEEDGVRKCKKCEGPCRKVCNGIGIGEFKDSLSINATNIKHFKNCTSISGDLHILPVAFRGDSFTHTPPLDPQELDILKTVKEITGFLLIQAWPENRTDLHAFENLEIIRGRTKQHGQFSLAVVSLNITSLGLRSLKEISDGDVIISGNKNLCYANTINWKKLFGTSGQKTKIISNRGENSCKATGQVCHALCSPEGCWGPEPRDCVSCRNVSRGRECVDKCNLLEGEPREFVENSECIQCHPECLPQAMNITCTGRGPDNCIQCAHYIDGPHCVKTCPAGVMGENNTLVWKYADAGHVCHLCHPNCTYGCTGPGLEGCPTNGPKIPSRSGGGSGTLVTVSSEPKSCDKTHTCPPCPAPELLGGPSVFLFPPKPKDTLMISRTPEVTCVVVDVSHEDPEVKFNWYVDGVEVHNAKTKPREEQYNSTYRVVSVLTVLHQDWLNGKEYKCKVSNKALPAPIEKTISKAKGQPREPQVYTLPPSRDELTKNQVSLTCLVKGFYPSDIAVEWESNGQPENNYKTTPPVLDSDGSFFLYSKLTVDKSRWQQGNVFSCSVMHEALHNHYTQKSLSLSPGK
Procedure: (§1) The protein solution was removed and wells were rinsed twice with Tris-Buffered Saline containing 0.05% Tween-20 (TBS-T) using a plate washer (Embla). The wells were blocked with Starting Block in TBS for 1 hr at room temperature and rinsed twice with TBS-T. An equal volume of phage supernatant and Starting Block in TBS were incubated in the wells for 1 hr at room temperature, and the wells were rinsed five times with TBS-T. Anti-M13/horseradish peroxidase conjugate (Amersham), diluted 1:5000 in Starting Block in TBS, was added into the wells and incubated for 1 hour at room temperature, and then the wells were rinsed five times with TBS-T. Finally, chemiluminescent peroxidase substrate (Roche) was added to the wells, and chemiluminescence was measured on a Tecan plate reader.

Compared with B2, B3 is higher in ELISA: 1290 units for the first, 14000 units for the second.

Going from B4 to B5, the ELISA falls from 3350 units to 2580 units.

In the case of B6, the ELISA is reported as 8810 units.

biological target: T2, sEGFR-MMB (dimeric sEGFR mimetibody); assay: as above; remark: another data set of the same source
Procedure: as §1

Compared with B7, B8 is lower in ELISA: 34600 units for the first, 8660 units for the second.

For B9, the ELISA was 7910 units.

biological target: T3, Control-MMB (CNTO 360) (Homo sapiens (Human), UniProt P0DOX5 111-449 = IgG part); assay: phage ELISA on coated Control-MMB in the presence of EGF [panel B]
T3 construct: MMB scaffold without a peptide; described as human IgG1 heavy chain dimer lacking the variable and most of the CH1 domains; also called blank mimetibody scaffold protein
Procedure: as §1
(§2) Confirmatory Phage ELISA. […] The binding reaction was incubated for 1 hr at room temperature, and then bound phage were detected with anti-M13/HRP as above. For ELISAs with biotinylated receptors, streptavidin at 5 μg/ml was coated in the wells overnight at 4° C. […] The wells were rinsed with TBS-T and then blocked with Starting Block. Bound phage were washed and detected with anti-M13/HRP as described above.

B10: no binding.

biological target: T2, sEGFR-MMB (dimeric sEGFR mimetibody); assay: phage ELISA on coated sEGFR-MMB, chemiluminescence (background typically <200 units); remark: another data set of the same source
Procedure: as §1

Compared with B11, B12 is lower in ELISA: 13300 units for the first, 3670 units for the second.

First: B13
Second: B14
The ELISA of the first is lower: 1420 units for the first, 5720 units for the second.

Going from B15 to B16, the ELISA rises from 1780 units to 3080 units.

Compared with B17, B18 is higher in ELISA: 1160 units for the first, 9380 units for the second.

First: B19
Second: B20
The ELISA of the first is higher: 6790 units for the first, 1360 units for the second.

Going from B21 to B22, the ELISA rises from 1110 units to 1520 units.

biological target: T2, sEGFR-MMB (dimeric sEGFR mimetibody); assay: as above; remark: another data set of the same source
Procedure: as §1

First: B10
Second: B23
The ELISA of the first is higher: 37400 units for the first, 4800 units for the second.

First: B24
Second: B25
The ELISA of the first is lower: 6620 units for the first, 9540 units for the second.

Compared with B26, B27 is higher in ELISA: 4770 units for the first, 5420 units for the second.

Binder B28 has an ELISA of 4510 units.

biological target: T3, Control-MMB (CNTO 360); assay: phage ELISA, Control-MMB coated at 5 ug/ml
Procedure: The plates were held overnight at room temperature, washed twice with TBST (0.5M Tris Base, 9% NaCl, 0.05% tween, pH 7.6), and loaded with 200 μL per well of Starting Block (Pierce). […] The plates were held at room temperature for 1.5 hours for blocking. Plates were then washed twice with TBST and phage were added. The phage solutions were crude phage supernatant from overnight cultures diluted four-fold with Starting Block. After a one-hour incubation, the plates were washed thrice with TBST and 100 μL of a 1:5000 dilution of phage binding antibody conjugate (α-M13-HRP) was added to the wells. […] After a one-hour incubation the plates were washed five times with TBST, 100 μL of POD (BM Chemiluminescence ELISA substrate; Roche Applied Science) was added, and chemiluminescene recorded.

B29: no binding.

biological target: T4, Streptavidin; assay: phage ELISA on streptavidin-coated wells without receptor [panel C]
T4 construct: also called Streptavidin alone; SA
Procedure: as §1, §2

B10: no binding.

biological target: T1, human EGFR on tumor cells; assay: flow cytometry on A431 cells, without EGF

In the case of B30, the “fold increase in FACS signal” value is reported as roughly 10 fold.

biological target: T2, sEGFR-MMB (dimeric sEGFR mimetibody); assay: phage ELISA on coated sEGFR-MMB, chemiluminescence (background typically <200 units); remark: another data set of the same source
Procedure: as §1

Going from B31 to B32, the ELISA rises from 31500 units to 35300 units.

First: B33
Second: B34
The ELISA of the first is higher: 37900 units for the first, 19800 units for the second.

Compared with B35, B36 is lower in ELISA: 53200 units for the first, 4750 units for the second.

Compared with B37, B38 is higher in ELISA: 6380 units for the first, 17100 units for the second.

Going from B39 to B40, the ELISA falls from 30700 units to 22000 units.

Going from B41 to B42, the ELISA rises from 3200 units to 13300 units.

B43 gave an ELISA of 9110 units.
